According to US20230203155A1 (ALMAC DISCOVERY, published 2023):

Legend:
[1] = biological target: T1, human ROR1-hFc fusion protein (extracellular domain) (human); assay: BLI, ROR1-hFc on sensor
T1 construct: Whole entry 'human ROR1-Fc (CHO)'; also called hROR1; huROR1-Fc
Description: (§1) Binding kinetics were determined using a SPR (as previously described) or using Biolayer interferometry (K2 Octet instrument/Pall ForteBio). […] VNARs and VNAR-Fc molecules were tested at various concentrations and the Ka (M−1s−1), Kd (s−1) and KD (nM) values were determined using the Octet data analysis HT software (Pall ForteBio).

[2] = biological target: T2, human serum albumin (human, UniProt P02768 25-609); assay: BLI, HSA on sensor
T2 construct: also called HSA
Description: as §1

[3] = biological target: T3, mouse ROR1-Fc fusion protein (mouse); assay: ELISA
T3 construct: Whole entry 'mouse ROR1-Fc (CHO)'; also called mROR1

[4] = biological target: T1, human ROR1-hFc fusion protein …; assay: BLI, ROR1-hFc on sensor, 200 nM HSA present
Description: as §1

[5] = biological target: T1, human ROR1-hFc fusion protein …; assay: SPR, ROR1-hFc on chip
Description: (§2) Binding kinetics were determined using a Pioneer Surface Plasmon Resonance (SPR) instrument (SensiQ/Pall ForteBio). […] VNARs and VNAR-Fc molecules were tested at various concentrations and the Ka (M⁻¹s⁻¹), Kd (s⁻¹) and KD (nM) values were determined using QDat software (SensiQ/Pall ForteBio).
(§3) The ability of the VNAR-MMAE conjugates and VNAR-fluorescein conjugates to bind to human ROR1 ECD was determined by SPR using the procedures described above.

[6] = biological target: T4, human ROR2-hFc fusion protein (extracellular domain) (human); assay: SPR, ROR2-hFc on chip
T4 construct: Whole entry 'human ROR2-Fc (CHO)'; also called hROR2
Description: as §2, §3

[7] = biological target: T5, D3-[G4S]5-D3 his myc; assay: competition ELISA: D3-D3 pre-incubated with peptide, residual binding to coated huROR1-Fc
T5 construct: VNAR homodimer by genetic fusion; also called D3-D3; D3 dimer

[8] = biological target: T6, B1 VNAR with C-terminal His6Myc tag; assay: competition ELISA: B1 pre-incubated with peptide, residual binding to coated huROR1-Fc
T6 construct: VNAR, E. coli; also called B1 his myc; B1HisMyc monomer
Description: (§4) In brief, ELISA method as follows. Wells coated with 100 ng antigen and incubated, covered, at room temperature for 2 hr. Plates washed 3×400 ul per well with PBST (PBS+0.05% Tween 20 (v/v)), then blocked with 4% skimmed milk powder (w/v) in PBST for 1 hour at 37° C. Plates washed as before plus additional wash in PBS alone. Binding proteins were diluted in 4% milk PBST and incubated overnight at 4° C. Plates washed 3× with PBST, 3×PBS and binding detected using appropriate secondary detection antibody in 4% milk PBST, room temperature 1 hour. […] Rabbit anti-Mouse IgG H&L, HRP (Abcam #ab97046) [0360] Mouse anti-polyHis, HRP (Sigma #A7058)
(§5) Competition assays were conducted as described in the methods with all four peptides reconstituted in PBS.

[9] = biological target: T7, D3 his myc; assay: competition ELISA: D3 pre-incubated with peptide, residual binding to coated huROR1-Fc
T7 construct: VNAR; made in E. coli and in HEK293 (expression system under assay); also called D3 WT

[10] = biological target: T8, P3A1 his myc; assay: competition ELISA: P3A1 pre-incubated with peptide, residual binding to coated huROR1-Fc
T8 construct: VNAR; also called P3A1 6xHis myc
Description: as §4, §5
T8 VNAR: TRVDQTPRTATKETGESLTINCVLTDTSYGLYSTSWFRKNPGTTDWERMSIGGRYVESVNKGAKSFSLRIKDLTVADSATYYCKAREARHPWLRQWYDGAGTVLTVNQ

[11] = biological target: T4, human ROR2-hFc fusion protein …; assay: monoclonal phage ELISA on coated ROR2-Fc
[12] = biological target: T9, human ROR1 on the surface of ROR1hi human cancer cell lines (human, UniProt Q01973 30-937); assay: flow cytometry, A549 (ROR1hi) cells, 4°C
T9 construct: whole, on cells; Cell line is named under assay; also called cell surface ROR1

[13] = biological target: T10, rat ROR1-Fc fusion protein (rat); assay: SPR, rat ROR1 on chip
T10 construct: Whole entry 'rat ROR1-Fc (CHO)'; also called rROR1
Description: as §2

[14] = biological target: T1, human ROR1-hFc fusion protein …; assay: SPR, ROR1-hFc on chip; remark: listed apart in the source
Description: as §2

[15] = biological target: T4, human ROR2-hFc fusion protein …; assay: SPR, ROR2-hFc on chip; remark: listed apart in the source
Description: as §2, §1

[16] = biological target: T3, mouse ROR1-Fc fusion protein; assay: SPR, mouse ROR1 on chip
Description: as §2

[17] = biological target: T2, human serum albumin; assay: SPR, albumin on chip, pH 5.5;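 also: albumins amine-coupled onto carboxyl SPR chips, with each analyte also run over a hen egg lysozyme surface as negative control, Kd derived from binding kinetics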
Description: (§6) Binding kinetics were determined using SPR. The serum albumins or negative control protein were immobilised to COOH₂ chips by amine coupling using optimised buffer conditions as follows: —Human serum albumin (HSA) and mouse serum albumin (MSA) were immobilised in sodium acetate pH5 buffer. Rat serum albumin (RSA) and cynomolgous serum albumin (CSA) in sodium acetate pH 4.5 buffer and the negative control hen egg lysozyme (HEL) protein was immobilised in sodium acetate pH 5.5 buffer.
(§7) For each analyte test experiment, binding to the chosen serum albumin protein was assayed alongside the negative control protein (HEL).

[18] = biological target: T11, rat serum albumin (rat, UniProt P02770 25-608); assay: SPR, albumin on chip, pH 5.5;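 also: albumins amine-coupled onto carboxyl SPR chips, with each analyte also run over a hen egg lysozyme surface as negative control, Kd derived from binding kinetics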
T11 construct: also called RSA
Description: as §6, §7

[19] = biological target: T12, mouse serum albumin (mouse, UniProt P07724 25-608); assay: SPR, albumin on chip, pH 5.5;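 also: albumins amine-coupled onto carboxyl SPR chips, with each analyte also run over a hen egg lysozyme surface as negative control, Kd derived from binding kinetics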
T12 construct: also called MSA
Description: as §6, §7

[20] = biological target: T13, cynomolgous serum albumin (cynomolgous, UniProt A2V9Z4 25-608); assay: SPR, albumin on chip, pH 5.5;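 also: albumins amine-coupled onto carboxyl SPR chips, with each analyte also run over a hen egg lysozyme surface as negative control, Kd derived from binding kinetics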
T13 construct: also called CSA; Cyano
Description: as §6, §7

[21] = biological target: T2, human serum albumin; assay: SPR, albumin on chip, pH 7.4;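 also: Human, mouse, rat and cynomolgus serum albumins amine-coupled to carboxyl sensor chips, with a hen egg lysozyme surface measured in parallel as negative control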
Description: as §6, §7

[22] = biological target: T11, rat serum albumin; assay: SPR, albumin on chip, pH 7.4;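 also: Human, mouse, rat and cynomolgus serum albumins amine-coupled to carboxyl sensor chips, with a hen egg lysozyme surface measured in parallel as negative control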
Description: as §6, §7

[23] = biological target: T12, mouse serum albumin; assay: SPR, albumin on chip, pH 7.4;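 also: Human, mouse, rat and cynomolgus serum albumins amine-coupled to carboxyl sensor chips, with a hen egg lysozyme surface measured in parallel as negative control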
Description: as §6, §7

[24] = biological target: T13, cynomolgous serum albumin; assay: SPR, albumin on chip, pH 7.4;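 also: Human, mouse, rat and cynomolgus serum albumins amine-coupled to carboxyl sensor chips, with a hen egg lysozyme surface measured in parallel as negative control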
Description: as §6, §7

T11 sequence (P02770 25-608 limits assumed): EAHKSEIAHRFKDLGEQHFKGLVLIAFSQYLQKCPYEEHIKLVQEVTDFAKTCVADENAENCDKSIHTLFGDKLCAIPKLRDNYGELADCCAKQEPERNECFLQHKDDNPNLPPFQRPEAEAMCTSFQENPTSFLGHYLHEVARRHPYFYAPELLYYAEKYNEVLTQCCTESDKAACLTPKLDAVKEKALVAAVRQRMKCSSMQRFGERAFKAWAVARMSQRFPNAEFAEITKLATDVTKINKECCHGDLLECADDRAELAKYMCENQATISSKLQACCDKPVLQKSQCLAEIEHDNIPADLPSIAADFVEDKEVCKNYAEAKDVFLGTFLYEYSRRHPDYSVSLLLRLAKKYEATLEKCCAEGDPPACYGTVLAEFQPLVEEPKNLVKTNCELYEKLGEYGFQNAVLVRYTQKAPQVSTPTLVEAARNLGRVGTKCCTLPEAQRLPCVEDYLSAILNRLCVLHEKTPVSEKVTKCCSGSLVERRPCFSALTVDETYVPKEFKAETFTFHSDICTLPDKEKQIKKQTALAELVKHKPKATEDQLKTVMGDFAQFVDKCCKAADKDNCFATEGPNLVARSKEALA
T4 sequence (chain, as listed by the source limits assumed): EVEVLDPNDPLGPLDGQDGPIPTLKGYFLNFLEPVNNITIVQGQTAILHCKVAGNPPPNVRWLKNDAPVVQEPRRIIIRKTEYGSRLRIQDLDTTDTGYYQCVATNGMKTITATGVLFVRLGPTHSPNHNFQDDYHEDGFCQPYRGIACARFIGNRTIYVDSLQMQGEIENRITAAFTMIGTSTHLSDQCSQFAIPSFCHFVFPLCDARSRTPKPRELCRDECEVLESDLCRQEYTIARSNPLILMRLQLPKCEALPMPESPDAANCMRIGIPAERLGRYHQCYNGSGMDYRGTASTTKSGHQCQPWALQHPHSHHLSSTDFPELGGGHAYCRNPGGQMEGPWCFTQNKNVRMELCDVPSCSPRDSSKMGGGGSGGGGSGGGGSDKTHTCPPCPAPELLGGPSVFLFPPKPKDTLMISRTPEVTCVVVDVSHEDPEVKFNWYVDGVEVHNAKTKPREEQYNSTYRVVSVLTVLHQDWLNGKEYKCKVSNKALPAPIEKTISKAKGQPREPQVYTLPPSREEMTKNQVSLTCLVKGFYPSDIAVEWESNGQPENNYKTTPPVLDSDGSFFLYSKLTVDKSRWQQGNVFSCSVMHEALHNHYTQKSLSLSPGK
T3 sequence (chain, as listed by the source limits assumed): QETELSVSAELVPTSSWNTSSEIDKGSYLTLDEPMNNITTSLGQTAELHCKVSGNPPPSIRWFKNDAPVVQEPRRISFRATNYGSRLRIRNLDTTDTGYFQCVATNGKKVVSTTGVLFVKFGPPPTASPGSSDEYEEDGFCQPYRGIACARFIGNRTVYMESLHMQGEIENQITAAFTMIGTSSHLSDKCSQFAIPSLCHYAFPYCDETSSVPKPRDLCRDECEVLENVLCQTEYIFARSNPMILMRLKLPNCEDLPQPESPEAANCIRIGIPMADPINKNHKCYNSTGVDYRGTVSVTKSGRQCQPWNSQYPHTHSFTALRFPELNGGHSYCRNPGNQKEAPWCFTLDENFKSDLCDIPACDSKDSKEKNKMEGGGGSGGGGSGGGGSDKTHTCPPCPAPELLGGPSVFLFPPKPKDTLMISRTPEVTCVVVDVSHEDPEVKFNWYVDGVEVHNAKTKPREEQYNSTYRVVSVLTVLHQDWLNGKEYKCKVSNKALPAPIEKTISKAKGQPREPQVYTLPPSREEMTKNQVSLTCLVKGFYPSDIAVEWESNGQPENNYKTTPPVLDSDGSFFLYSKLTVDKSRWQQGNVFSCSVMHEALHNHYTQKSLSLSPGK
T1 sequence (chain, as listed by the source limits assumed): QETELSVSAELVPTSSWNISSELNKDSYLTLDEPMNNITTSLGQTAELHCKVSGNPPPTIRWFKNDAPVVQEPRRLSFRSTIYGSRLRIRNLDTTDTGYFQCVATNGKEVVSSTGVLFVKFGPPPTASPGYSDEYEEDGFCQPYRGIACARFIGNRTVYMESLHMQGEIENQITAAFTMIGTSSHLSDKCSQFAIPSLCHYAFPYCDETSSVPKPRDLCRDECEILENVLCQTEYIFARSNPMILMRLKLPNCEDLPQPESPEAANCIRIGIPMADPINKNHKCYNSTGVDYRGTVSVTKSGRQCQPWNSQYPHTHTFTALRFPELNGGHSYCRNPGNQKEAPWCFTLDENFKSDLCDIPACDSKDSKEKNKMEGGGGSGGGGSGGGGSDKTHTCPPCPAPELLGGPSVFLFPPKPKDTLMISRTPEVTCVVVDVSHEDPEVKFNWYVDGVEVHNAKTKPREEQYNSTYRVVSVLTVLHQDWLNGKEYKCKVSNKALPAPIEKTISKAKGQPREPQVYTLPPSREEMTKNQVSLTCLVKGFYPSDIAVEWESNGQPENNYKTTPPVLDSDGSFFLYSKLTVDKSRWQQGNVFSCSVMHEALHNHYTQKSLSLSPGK
T13 sequence (A2V9Z4 25-608 limits assumed): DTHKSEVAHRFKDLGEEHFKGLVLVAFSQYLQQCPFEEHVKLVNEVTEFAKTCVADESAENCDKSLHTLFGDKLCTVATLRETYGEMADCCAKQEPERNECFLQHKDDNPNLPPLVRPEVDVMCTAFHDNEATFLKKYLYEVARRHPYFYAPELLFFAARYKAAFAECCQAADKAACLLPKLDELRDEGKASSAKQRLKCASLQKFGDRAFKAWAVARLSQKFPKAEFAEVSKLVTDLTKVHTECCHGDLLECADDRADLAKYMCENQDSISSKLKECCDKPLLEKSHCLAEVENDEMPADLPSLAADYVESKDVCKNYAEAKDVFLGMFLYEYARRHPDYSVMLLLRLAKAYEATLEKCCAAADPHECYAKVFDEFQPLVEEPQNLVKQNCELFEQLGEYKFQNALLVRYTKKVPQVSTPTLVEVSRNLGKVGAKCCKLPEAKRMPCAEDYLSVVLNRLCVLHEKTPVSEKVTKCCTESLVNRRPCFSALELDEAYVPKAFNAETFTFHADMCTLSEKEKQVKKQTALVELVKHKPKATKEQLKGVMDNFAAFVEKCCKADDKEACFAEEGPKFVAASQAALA
T10 sequence (chain, as listed by the source limits assumed): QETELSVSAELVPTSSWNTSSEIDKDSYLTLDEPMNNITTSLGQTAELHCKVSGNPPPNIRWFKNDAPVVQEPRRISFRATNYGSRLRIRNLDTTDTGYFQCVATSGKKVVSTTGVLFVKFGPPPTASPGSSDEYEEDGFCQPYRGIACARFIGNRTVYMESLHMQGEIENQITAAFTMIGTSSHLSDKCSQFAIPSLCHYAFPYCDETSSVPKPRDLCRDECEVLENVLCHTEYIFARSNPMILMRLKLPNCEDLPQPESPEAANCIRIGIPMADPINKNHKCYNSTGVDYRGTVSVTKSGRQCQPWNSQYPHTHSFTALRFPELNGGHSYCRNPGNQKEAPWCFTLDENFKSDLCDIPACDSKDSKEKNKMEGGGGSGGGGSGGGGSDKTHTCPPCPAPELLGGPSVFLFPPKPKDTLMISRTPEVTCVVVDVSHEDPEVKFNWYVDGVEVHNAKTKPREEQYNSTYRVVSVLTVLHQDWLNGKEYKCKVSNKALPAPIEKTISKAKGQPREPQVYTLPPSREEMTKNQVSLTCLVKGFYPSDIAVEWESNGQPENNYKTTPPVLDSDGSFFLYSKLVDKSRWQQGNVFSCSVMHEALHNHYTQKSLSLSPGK
T12 sequence (P07724 25-608 limits assumed): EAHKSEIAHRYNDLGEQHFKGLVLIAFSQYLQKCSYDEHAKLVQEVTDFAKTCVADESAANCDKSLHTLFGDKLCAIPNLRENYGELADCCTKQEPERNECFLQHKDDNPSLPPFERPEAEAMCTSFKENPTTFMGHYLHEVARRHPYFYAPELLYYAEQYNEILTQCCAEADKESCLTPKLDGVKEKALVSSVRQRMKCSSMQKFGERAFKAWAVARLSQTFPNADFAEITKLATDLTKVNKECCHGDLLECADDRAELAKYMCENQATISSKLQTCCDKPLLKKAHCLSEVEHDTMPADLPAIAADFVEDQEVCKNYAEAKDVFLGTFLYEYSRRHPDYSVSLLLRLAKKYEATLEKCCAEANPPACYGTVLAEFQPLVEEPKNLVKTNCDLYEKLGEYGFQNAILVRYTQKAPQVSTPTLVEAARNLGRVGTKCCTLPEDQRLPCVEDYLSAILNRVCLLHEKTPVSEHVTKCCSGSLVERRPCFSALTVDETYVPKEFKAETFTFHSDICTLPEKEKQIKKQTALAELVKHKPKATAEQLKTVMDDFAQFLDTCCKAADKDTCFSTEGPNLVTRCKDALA

B1: P3A1 Wobbe-G4S-BA11-Wobbe-G4S-P3A1 CysHisMyc (VNAR)
chain: TRVDQTPRTATKETGESLTINCVLTDTSYGLYSTSWFRKNPGTTDWERMSIGGRYVESVNKGAKSFSLRIKDLTVADSATYYCKAREARHPWLRQWYDGAGTVLTVNPGVQPSPGGGGSTRVDQSPSSLSASVGDRVTITCVLTDTSYPLYSTYWYRKNPGSSNKEQISISGRYSESVNKGTKSFTLTISSLQPEDSATYYCRAMSTNIWTGDGAGTKVEIKPGVQPSPGGGGSTRVDQTPRTATKETGESLTINCVLTDTSYGLYSTSWFRKNPGTTDWERMSIGGRYVESVNKGAKSFSLRIKDLTVADSATYYCKAREARHPWLRQWYDGAGTVLTVNQACKAHHHHHHGAEFEQKLISEEDL
notes: VNAR fusion; also called P3A1-BA11-P3A1
[1]
  Kd: 2.54 nM
  koff: 0.00044 s⁻¹
  kon: 173000 M⁻¹ s⁻¹
[2]
  Kd: 5.58 nM
  koff: 0.00069 s⁻¹
  kon: 124000 M⁻¹ s⁻¹
[3]
  binding result: binds
[4]
  Kd: 1.6 nM

B2: P3A1-P3A1-S-mal-vcMMAE (VNAR)
chain: TRVDQTPRTATKETGESLTINCVLTDTSYGLYSTSWFRKNPGTTDWERMSIGGRYVESVNKGAKSFSLRIKDLTVADSATYYCKAREARHPWLRQWYDGAGTVLTVNGGGGSGGGGSGGGGSGGGGSGGGGSTRVDQTPRTATKETGESLTINCVLTDTSYGLYSTSWFRKNPGTTDWERMSIGGRYVESVNKGAKSFSLRIKDLTVADSATYYCKAREARHPWLRQWYDGAGTVLTVNQASGAHHHHHHGAEFEQKLISEEDL
modifications: C-terminal thiol conjugated to MC vc PAB MMAE
[5]
  Kd: 0.59 nM
  koff: 0.0026 s⁻¹
  kon: 4.96e+06 M⁻¹ s⁻¹
[6]
  binding result: no binding

B3: P3A1-P3A1-Ox-vcMMAE (VNAR)
chain: TRVDQTPRTATKETGESLTINCVLTDTSYGLYSTSWFRKNPGTTDWERMSIGGRYVESVNKGAKSFSLRIKDLTVADSATYYCKAREARHPWLRQWYDGAGTVLTVNGGGGSGGGGSGGGGSGGGGSGGGGSTRVDQTPRTATKETGESLTINCVLTDTSYGLYSTSWFRKNPGTTDWERMSIGGRYVESVNKGAKSFSLRIKDLTVADSATYYCKAREARHPWLRQWYDGAGTVLTVNQASGAHHHHHHGAEFEQKLISEEDL
modifications: C-terminal aminoxy oxime-linked to benzaldehyde PEG2 vc PAB MMAE
[5]
  Kd: 1.43 nM
  koff: 0.00277 s⁻¹
  kon: 2.07e+06 M⁻¹ s⁻¹
[6]
  binding result: no binding

B4: P3A1-P3A1-Ox-MMAE (VNAR)
chain: TRVDQTPRTATKETGESLTINCVLTDTSYGLYSTSWFRKNPGTTDWERMSIGGRYVESVNKGAKSFSLRIKDLTVADSATYYCKAREARHPWLRQWYDGAGTVLTVNGGGGSGGGGSGGGGSGGGGSGGGGSTRVDQTPRTATKETGESLTINCVLTDTSYGLYSTSWFRKNPGTTDWERMSIGGRYVESVNKGAKSFSLRIKDLTVADSATYYCKAREARHPWLRQWYDGAGTVLTVNQASGAHHHHHHGAEFEQKLISEEDL
modifications: C-terminal aminoxy oxime-linked to benzaldehyde PEG4 MMAE
[5]
  Kd: 0.78 nM
  koff: 0.0032 s⁻¹
  kon: 4.2e+06 M⁻¹ s⁻¹
[6]
  binding result: no binding

B5: BA11 Wobbe-G4S-P3A1-Wobbe-G4S-P3A1-CysHisMyc (VNAR)
chain: TRVDQSPSSLSASVGDRVTITCVLTDTSYPLYSTYWYRKNPGSSNKEQISISGRYSESVNKGTKSFTLTISSLQPEDSATYYCRAMSTNIWTGDGAGTKVEIKPGVQPSPGGGGSTRVDQTPRTATKETGESLTINCVLTDTSYGLYSTSWFRKNPGTTDWERMSIGGRYVESVNKGAKSFSLRIKDLTVADSATYYCKAREARHPWLRQWYDGAGTVLTVNPGVQPSPGGGGSTRVDQTPRTATKETGESLTINCVLTDTSYGLYSTSWFRKNPGTTDWERMSIGGRYVESVNKGAKSFSLRIKDLTVADSATYYCKAREARHPWLRQWYDGAGTVLTVNQACKAHHHHHHGAEFEQKLISEEDL
notes: VNAR fusion; also called BA11-P3A1-P3A1
[1]
  Kd: 3.47 nM
  koff: 0.000447 s⁻¹
  kon: 129000 M⁻¹ s⁻¹
[2]
  Kd: 5.08 nM
  koff: 0.000566 s⁻¹
  kon: 111000 M⁻¹ s⁻¹
[3]
  binding result: binds
[4]
  Kd: 2.53 nM

## QCVATNGKEVVSSTGVLFVKFGPPPTASPGYSDEYE (linear ROR1 ECD peptide) [Peptide 4]
[7]
  binding result: no binding
[8]
  binding result: no binding (tested: 10 uM)
[9]
  binding result: no binding
[10]
  binding result: no binding (tested: about 500 uM as the axis is labelled)

## CQPWNSQYPHTHTFTALRFP (linear ROR1 ECD peptide) [Peptide 3]
[7]
  binding result: no binding
[8]
  binding result: no binding (tested: 10 uM)
[9]
  binding result: no binding
[10]
  binding result: no binding (tested: about 500 uM as the axis is labelled)

## YMESLHMQGEIENQI (linear ROR1 ECD peptide) [Peptide 1]
[7]
  binding result: no binding
[8]
  binding result: no binding (tested: 10 uM)
[9]
  binding result: no binding
[10]
  binding result: no binding (tested: about 500 uM as the axis is labelled)

B6: E7 (VNAR)
VNAR: TRVDQTPRTATKETGESLTINCVVTGAKYGLAATYWYRKNPGSSNQERISISGRYVESVNKRTMSFSLRIKDLTVADSATYYCKAYPWAMWGQWYDGAGTVLTVN
notes: also called E7 phage clone; E7 monoclonal phage
[11]
  binding result: no binding

B7: Peptide 2 (peptide)
peptide: RSTIYGSRLRINLDTTDTGYFQ
notes: linear ROR1 ECD peptide; insoluble in PBS
[7]
  binding result: no binding
[8]
  binding result: no binding (tested: 10 uM)
[9]
  binding result: no binding
[10]
  binding result: no binding (tested: about 500 uM as the axis is labelled)

B8: B1G1-B1G1 HisMyc (VNAR)
chain: TRVDQSPSSLSASVGDRVTITCVLTGANYGLASTYWYRKNPGSSNKEQISISGRYSESVNKGTKSFTLTISSLQPEDSATYYCRAYPWGAGAPWLVQWYDGAGTKVEIKGGGGSGGGGSGGGGSGGGGSGGGGSTRVDQSPSSLSASVGDRVTITCVLTGANYGLASTYWYRKNPGSSNKEQISISGRYSESVNKGTKSFTLTISSLQPEDSATYYCRAYPWGAGAPWLVQWYDGAGTKVEIKQASGAHHHHHHGAEFEQKLISEEDL
notes: VNAR fusion
[12]
  Median YL1-PE: 1470

B9: P3A1 (VNAR)
VNAR: TRVDQTPRTATKETGESLTINCVLTDTSYGLYSTSWFRKNPGTTDWERMSIGGRYVESVNKGAKSFSLRIKDLTVADSATYYCKAREARHPWLRQWYDGAGTVLTVN
notes: also called P3A1 phage clone; P3A1 monoclonal phage
[11]
  binding result: no binding

B10: CPF7 his myc (VNAR)
VNAR: TRVDQTPRTATKETGESLTINCVVTGAKYGLFATYWYRKNPGSSNQERISISGRYVESVNKRTMSFSLRIKDLTVADSATYYCKAVFMPQHWHPAAHWYDGAGTVLTVNQ
notes: VNAR
[13]
  Kd: 68.6 nM
  koff: 0.0366 s⁻¹
  kon: 772000 M⁻¹ s⁻¹
[14]
  Kd: 13.6 nM
  koff: 0.0296 s⁻¹
  kon: 2.33e+06 M⁻¹ s⁻¹
[15]
  binding result: no binding
[16]
  Kd: 19.1 nM
  koff: 0.032 s⁻¹
  kon: 2.26e+06 M⁻¹ s⁻¹

B11: BA11 C-terminal thiol derivative (VNAR)
VNAR: TRVDQSPSSLSASVGDRVTITCVLTDTSYPLYSTYWYRKNPGSSNKEQISISGRYSESVNKGTKSFTLTISSLQPEDSATYYCRAMSTNIWTGDGAGTKVEIK
modifications: C-terminal thiol (intein cleavage with cysteamine)
notes: also called BA11-SH
[17]
  Kd: 2.23 nM
[18]
  Kd: 12.1 nM
[19]
  Kd: 11.1 nM
[20]
  Kd: 6.74 nM
[21]
  Kd: 0.774 nM
[22]
  Kd: 7.67 nM
[23]
  Kd: 4.76 nM
[24]
  Kd: 3.41 nM

B12: BA11-C term thiol-maleimide-peg-fluorescein (VNAR)
VNAR: TRVDQSPSSLSASVGDRVTITCVLTDTSYPLYSTYWYRKNPGSSNKEQISISGRYSESVNKGTKSFTLTISSLQPEDSATYYCRAMSTNIWTGDGAGTKVEIK
modifications: C-terminal thiol conjugated to maleimide-peg-fluorescein
notes: also called BA11-S-mal-Fl
[17]
  Kd: 1.91 nM
[18]
  Kd: 7.92 nM
[19]
  Kd: 10.6 nM
[20]
  Kd: 7.01 nM
[21]
  Kd: 1.42 nM
[22]
  Kd: 5.3 nM
[23]
  Kd: 5 nM
[24]
  Kd: 2.3 nM
